% activity data for three substances are collected here from US20150064134A1.

Targets include CDK2/cyclinE(h) (human) (UniProt P24941); CK1δ(h) (human) (UniProt P48730); CaMKIIγ(h) (human) (UniProt Q13555); Hck(h) (human) (UniProt P08631); Lyn(h) (human) (UniProt P07948); Met(D1246N)(h) (human) (UniProt P08581); PASK(h) (human) (UniProt Q96RG2); PKBβ(h) (human) (UniProt P31751); PTK5(h) (human) (UniProt P42685); ROCK-I(h) (human) (UniProt Q13464); SAPK2b(h) (human) (UniProt Q15759); SRPK1(h) (human) (UniProt Q96SB4); WNK3(h) (human) (UniProt Q9BYP7).

What all share (experiment): cell-based or functional assay
The target in the next test is T1, BrSK2(h) (human) (UniProt Q8IWQ3).
T1 sequence (looked up): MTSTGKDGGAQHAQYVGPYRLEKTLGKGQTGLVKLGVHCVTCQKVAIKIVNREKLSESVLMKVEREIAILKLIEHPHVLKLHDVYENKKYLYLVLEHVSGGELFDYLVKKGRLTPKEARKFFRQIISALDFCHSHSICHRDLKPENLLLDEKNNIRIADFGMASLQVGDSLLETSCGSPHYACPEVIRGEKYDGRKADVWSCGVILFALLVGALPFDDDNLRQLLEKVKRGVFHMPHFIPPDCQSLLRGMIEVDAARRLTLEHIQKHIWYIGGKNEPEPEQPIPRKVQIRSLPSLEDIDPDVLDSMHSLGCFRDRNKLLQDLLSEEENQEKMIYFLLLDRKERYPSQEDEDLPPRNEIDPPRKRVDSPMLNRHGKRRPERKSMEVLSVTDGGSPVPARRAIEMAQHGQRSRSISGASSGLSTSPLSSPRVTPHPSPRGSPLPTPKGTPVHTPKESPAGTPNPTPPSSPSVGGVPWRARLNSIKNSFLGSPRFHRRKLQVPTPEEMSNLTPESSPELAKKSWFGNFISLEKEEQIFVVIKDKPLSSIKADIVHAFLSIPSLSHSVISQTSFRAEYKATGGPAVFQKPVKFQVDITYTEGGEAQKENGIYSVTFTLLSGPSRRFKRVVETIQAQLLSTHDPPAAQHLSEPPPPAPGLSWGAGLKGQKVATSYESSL

In another test the target is T2, Fms(h) (human) (UniProt P07333).
T2 sequence (looked up): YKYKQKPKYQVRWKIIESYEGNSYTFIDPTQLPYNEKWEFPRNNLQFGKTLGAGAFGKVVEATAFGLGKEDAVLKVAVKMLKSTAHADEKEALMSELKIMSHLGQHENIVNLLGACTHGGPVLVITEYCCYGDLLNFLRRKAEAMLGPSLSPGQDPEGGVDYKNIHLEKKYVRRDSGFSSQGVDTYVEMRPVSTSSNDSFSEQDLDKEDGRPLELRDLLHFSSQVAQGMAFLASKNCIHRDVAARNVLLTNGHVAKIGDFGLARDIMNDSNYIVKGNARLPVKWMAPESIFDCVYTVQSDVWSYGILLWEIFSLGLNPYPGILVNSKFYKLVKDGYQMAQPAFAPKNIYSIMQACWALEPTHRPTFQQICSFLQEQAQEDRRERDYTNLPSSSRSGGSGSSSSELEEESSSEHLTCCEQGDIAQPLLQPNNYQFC

The next test concerns the target T3, MST2(h) (human) (UniProt Q13188).
T3 sequence (looked up): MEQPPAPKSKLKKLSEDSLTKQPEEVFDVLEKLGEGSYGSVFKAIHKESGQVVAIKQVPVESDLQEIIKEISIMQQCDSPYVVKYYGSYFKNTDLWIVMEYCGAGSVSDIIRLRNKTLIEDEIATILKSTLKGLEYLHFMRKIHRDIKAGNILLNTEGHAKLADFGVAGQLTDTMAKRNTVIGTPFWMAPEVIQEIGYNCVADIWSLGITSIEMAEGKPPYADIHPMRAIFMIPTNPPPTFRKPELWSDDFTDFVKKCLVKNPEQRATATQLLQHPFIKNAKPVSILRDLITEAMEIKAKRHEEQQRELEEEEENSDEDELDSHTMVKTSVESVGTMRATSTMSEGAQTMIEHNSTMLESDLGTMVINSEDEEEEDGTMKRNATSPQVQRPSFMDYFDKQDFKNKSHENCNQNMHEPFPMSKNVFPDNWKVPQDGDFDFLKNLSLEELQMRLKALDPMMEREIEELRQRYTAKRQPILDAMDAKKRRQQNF

The target in another test is T4, TBK1(h) (human) (UniProt Q9UHD2).
T4 sequence (looked up): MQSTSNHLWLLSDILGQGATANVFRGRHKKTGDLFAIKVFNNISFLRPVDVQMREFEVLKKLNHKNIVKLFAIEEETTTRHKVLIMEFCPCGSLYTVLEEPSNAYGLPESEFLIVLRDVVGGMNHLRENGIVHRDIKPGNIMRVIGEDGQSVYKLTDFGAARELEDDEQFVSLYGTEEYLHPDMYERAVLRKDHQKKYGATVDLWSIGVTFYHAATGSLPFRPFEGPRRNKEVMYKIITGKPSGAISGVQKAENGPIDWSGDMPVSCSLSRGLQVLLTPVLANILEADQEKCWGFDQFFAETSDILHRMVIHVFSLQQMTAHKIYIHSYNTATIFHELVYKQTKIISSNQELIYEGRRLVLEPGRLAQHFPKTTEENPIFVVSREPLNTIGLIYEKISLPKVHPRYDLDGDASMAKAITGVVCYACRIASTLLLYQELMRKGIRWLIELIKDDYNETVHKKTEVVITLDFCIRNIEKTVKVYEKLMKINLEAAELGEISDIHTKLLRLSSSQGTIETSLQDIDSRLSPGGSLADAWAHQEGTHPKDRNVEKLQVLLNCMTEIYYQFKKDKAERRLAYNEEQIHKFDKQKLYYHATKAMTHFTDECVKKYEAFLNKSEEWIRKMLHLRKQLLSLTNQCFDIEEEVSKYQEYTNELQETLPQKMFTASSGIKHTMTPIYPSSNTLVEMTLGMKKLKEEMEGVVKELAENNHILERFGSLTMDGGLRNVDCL

SAPK2b(h) (human), sequence (Q15759 whole entry): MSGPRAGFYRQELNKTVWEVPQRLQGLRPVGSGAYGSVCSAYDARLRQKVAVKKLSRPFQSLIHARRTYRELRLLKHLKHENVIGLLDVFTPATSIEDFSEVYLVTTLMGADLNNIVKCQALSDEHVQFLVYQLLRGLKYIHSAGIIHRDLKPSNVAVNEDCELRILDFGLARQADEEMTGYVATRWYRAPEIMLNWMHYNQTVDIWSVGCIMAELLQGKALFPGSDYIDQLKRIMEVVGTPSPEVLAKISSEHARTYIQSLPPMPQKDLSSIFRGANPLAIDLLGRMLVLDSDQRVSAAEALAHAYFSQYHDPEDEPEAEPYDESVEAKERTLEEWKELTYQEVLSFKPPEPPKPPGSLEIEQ
PTK5(h) (human), sequence (P42685 whole entry): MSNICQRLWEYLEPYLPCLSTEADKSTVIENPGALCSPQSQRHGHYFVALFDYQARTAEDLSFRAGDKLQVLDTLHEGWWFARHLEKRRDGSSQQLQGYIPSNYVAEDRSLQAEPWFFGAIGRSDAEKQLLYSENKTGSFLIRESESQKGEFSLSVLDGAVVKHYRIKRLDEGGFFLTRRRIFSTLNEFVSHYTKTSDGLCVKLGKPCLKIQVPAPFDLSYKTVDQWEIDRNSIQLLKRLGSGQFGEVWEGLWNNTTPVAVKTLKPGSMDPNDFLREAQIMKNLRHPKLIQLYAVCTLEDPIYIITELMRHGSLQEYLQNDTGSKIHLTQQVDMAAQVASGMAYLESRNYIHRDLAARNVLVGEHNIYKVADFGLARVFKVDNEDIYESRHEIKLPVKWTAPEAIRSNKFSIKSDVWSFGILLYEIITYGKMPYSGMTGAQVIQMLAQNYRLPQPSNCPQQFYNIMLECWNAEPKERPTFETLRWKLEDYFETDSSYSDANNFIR
CaMKIIγ(h) (human), sequence (Q13555 whole entry): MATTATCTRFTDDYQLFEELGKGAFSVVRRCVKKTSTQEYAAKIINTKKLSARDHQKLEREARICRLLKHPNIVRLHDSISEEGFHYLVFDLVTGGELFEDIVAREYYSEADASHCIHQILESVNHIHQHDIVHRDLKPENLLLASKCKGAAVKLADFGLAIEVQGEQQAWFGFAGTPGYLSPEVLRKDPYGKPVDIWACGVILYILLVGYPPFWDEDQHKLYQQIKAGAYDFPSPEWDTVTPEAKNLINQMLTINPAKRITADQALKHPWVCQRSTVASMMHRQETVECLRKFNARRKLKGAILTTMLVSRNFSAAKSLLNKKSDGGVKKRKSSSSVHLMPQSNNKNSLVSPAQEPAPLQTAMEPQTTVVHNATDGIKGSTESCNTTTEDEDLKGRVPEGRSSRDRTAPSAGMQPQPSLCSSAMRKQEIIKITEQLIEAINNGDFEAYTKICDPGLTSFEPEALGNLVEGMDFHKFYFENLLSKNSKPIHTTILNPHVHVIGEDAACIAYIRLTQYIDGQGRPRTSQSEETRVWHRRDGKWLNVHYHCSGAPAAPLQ
PKBβ(h) (human), sequence (P31751 whole entry): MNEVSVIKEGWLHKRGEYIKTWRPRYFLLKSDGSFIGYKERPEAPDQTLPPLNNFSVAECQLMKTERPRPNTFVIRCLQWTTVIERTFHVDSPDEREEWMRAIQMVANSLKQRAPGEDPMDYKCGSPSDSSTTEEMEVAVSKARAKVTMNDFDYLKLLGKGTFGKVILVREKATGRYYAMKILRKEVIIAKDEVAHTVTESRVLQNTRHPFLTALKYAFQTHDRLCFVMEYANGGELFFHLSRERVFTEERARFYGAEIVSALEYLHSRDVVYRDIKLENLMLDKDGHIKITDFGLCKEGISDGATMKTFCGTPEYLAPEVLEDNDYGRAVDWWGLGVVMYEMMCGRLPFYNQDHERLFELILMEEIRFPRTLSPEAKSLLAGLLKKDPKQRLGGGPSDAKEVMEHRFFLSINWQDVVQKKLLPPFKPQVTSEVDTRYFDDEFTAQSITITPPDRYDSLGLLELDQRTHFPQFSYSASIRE

With MMI-0400 (peptide), the % activity at 100 µM in the test with BrSK2(h) (human) is 86%; in the test with CDK2/cyclinE(h) (human), 83%; in the test with CK1δ(h) (human), 93%; with CaMKIIγ(h) (human), 3%; with Fms(h) (human), 37%; with Hck(h) (human) it was 72%. Moreover, the % activity at 100 µM in the test with Lyn(h) (human) was found to be 3%; with MST2(h) (human), 11%; in the test with Met(D1246N)(h) (human), 31%; with PASK(h) (human), 28%; in the test with PKBβ(h) (human), 98%; with PTK5(h) (human) it was 129%. The % activity at 100 µM with ROCK-I(h) (human) was found to be 73%; in the test with SAPK2b(h) (human), 82%; in the test with SRPK1(h) (human), 96%; in the test with TBK1(h) (human), 39%; in the test with WNK3(h) (human), 74%.
For the substance MMI-0500 (peptide), the % activity at 100 µM turned out to be 84% with BrSK2(h) (human); 19% with CDK2/cyclinE(h) (human); 78% with CK1δ(h) (human); 3% with CaMKIIγ(h) (human); 14% with Fms(h) (human); 78% with Hck(h) (human). Further, the % activity at 100 µM in the test with Lyn(h) (human) is 31%; with MST2(h) (human), 2%; in the test with Met(D1246N)(h) (human) it was 90%; with PASK(h) (human), 9%; with PKBβ(h) (human), 21%; with PTK5(h) (human), 96%. Moreover, the % activity at 100 µM in the test with ROCK-I(h) (human) came to 17%; with SAPK2b(h) (human) it was 42%; in the test with SRPK1(h) (human) it was 80%; with TBK1(h) (human) it was 16%; in the test with WNK3(h) (human), 9%.
Turning to MMI-0300 (peptide), the % activity at 100 µM with BrSK2(h) (human) turned out to be 83%; with CDK2/cyclinE(h) (human), 94%; with CK1δ(h) (human), 92%; in the test with CaMKIIγ(h) (human) it was 5%; with Fms(h) (human), 45%; in the test with Hck(h) (human) it was 72%. The % activity at 100 µM with Lyn(h) (human) was determined as 69%; in the test with MST2(h) (human) it was 19%; in the test with Met(D1246N)(h) (human) it was 82%; with PASK(h) (human), 29%; with PKBβ(h) (human) it was 84%; in the test with PTK5(h) (human), 132%. Further, the % activity at 100 µM with ROCK-I(h) (human) amounted to 79%; in the test with SAPK2b(h) (human) it was 81%; with SRPK1(h) (human), 90%; in the test with TBK1(h) (human), 37%; in the test with WNK3(h) (human), 77%.
